Assays:
Grb2 SH2 = Grb2 SH2 (UniProt P62993); test: SH2 binding enrichment of the phosphorylated peptide, bacterial display (enrichment ratio); higher = better substrate or ligand; peptides without Tyr show the background
SHP2-C SH2 = test: as above
c-Src SH2 = test: as above
MERTK = MERTK (UniProt Q12866); test: phosphorylation enrichment, bacterial display (enrichment ratio); higher = better substrate or ligand; peptides without Tyr show the background
Jak2 = Jak2 (UniProt O60674); test: as above
Fyn = Fyn (UniProt P06241); test: as above
AncSZ = test: as above
EPHB2 = EPHB2 (UniProt P29323); test: as above
Fer (mouse) = test: as above
c-Src = test: as above
FGFR3 = FGFR3 (UniProt P22607); test: as above
c-Abl (mouse) = test: as above
EPHB1 = EPHB1 (UniProt P54762); test: as above
Hck = Hck (UniProt P08631); test: as above
FGFR1 = FGFR1 (UniProt P11362); test: as above
Fes = Fes (UniProt P07332); test: as above
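Throughout, for SH2 binding enrichment of the phosphorylated peptide, bacterial display: peptide library displayed on the E. coli surface as eCPX fusions, selected cells deep-sequenced, score is each peptide's frequency after selection divided by its frequency in the input.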
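Throughout, for phosphorylation enrichment, bacterial display: 11-residue human phosphosite peptides and single-mutation variants displayed on the E. coli surface, counted by deep sequencing, each peptide's frequency after selection divided by its frequency in the unselected input library; frequency after pTyr selection over input frequency; kinase dosed for 20-30% of maximal phosphorylation in three min.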

Sequence of FGFR3 (P22607 whole entry, looked up): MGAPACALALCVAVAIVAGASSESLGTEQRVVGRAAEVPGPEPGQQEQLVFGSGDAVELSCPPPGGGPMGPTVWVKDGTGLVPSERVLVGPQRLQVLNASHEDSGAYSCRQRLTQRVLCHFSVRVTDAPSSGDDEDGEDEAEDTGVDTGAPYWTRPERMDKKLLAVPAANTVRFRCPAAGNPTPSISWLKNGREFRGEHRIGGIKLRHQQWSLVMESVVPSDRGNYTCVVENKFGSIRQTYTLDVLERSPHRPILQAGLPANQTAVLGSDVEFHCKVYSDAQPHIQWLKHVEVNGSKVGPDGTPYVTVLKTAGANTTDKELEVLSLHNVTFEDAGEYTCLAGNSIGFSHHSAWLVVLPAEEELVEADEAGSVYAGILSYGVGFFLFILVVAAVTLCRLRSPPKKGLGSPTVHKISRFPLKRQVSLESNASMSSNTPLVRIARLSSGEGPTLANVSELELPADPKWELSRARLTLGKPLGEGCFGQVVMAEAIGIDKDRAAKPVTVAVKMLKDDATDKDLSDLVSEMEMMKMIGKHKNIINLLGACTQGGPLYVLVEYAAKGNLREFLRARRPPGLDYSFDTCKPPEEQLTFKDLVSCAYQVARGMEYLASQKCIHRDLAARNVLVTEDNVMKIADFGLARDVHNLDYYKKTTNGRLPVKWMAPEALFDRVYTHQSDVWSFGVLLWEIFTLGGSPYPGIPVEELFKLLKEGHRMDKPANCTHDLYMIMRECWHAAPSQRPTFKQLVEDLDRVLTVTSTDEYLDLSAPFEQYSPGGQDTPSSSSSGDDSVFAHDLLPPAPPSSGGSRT
Sequence of Grb2 SH2 (P62993 whole entry, looked up): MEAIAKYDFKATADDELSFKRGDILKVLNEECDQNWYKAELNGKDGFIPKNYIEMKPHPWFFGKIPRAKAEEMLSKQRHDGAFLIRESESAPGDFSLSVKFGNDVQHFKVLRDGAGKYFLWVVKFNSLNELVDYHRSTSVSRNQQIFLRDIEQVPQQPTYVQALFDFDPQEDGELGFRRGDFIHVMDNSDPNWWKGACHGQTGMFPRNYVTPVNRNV
Sequence of FGFR1 (P11362 whole entry, looked up): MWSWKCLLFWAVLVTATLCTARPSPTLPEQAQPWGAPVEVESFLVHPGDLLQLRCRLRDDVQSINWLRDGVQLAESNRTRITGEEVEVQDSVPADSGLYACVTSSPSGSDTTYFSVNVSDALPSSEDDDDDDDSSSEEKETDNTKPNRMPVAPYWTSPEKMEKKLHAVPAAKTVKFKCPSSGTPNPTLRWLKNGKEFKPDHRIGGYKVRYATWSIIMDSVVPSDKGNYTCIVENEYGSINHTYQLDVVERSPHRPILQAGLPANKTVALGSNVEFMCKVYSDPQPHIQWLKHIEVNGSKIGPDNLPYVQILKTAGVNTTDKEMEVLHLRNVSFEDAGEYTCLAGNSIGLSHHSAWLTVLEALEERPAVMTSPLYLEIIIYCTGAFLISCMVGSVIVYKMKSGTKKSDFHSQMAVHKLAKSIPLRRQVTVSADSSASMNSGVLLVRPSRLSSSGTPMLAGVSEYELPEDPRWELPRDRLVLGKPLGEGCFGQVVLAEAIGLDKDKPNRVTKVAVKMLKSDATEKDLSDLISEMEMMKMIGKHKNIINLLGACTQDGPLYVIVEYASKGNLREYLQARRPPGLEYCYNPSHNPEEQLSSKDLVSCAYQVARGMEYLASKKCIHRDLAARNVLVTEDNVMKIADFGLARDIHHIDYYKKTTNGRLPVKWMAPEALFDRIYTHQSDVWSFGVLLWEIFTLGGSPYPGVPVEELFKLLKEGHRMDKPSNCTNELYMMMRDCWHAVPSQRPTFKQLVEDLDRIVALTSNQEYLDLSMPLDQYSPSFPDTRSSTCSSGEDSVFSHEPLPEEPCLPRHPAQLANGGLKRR
Sequence of Fes (P07332 whole entry, looked up, the tested form may be a part): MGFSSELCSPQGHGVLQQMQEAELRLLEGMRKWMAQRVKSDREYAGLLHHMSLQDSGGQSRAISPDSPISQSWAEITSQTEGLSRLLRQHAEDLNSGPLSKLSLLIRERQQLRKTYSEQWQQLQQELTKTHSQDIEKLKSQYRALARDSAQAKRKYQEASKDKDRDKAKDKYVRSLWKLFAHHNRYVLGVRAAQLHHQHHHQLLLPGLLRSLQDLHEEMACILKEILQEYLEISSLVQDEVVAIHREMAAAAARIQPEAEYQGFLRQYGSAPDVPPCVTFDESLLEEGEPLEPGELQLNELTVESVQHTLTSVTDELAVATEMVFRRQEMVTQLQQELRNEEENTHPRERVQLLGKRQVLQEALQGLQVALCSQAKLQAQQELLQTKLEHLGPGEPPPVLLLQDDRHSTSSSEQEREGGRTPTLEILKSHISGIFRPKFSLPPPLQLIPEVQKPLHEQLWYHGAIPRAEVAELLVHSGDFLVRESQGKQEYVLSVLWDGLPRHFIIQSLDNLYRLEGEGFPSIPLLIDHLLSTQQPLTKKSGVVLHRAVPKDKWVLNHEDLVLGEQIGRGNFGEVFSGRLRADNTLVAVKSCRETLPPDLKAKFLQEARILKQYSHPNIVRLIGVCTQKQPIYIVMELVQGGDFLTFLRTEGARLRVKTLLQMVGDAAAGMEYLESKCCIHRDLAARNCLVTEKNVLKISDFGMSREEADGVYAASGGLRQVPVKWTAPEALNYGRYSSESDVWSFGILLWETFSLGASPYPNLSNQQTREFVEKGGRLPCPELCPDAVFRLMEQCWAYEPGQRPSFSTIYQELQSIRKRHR
Sequence of MERTK (Q12866 whole entry, looked up): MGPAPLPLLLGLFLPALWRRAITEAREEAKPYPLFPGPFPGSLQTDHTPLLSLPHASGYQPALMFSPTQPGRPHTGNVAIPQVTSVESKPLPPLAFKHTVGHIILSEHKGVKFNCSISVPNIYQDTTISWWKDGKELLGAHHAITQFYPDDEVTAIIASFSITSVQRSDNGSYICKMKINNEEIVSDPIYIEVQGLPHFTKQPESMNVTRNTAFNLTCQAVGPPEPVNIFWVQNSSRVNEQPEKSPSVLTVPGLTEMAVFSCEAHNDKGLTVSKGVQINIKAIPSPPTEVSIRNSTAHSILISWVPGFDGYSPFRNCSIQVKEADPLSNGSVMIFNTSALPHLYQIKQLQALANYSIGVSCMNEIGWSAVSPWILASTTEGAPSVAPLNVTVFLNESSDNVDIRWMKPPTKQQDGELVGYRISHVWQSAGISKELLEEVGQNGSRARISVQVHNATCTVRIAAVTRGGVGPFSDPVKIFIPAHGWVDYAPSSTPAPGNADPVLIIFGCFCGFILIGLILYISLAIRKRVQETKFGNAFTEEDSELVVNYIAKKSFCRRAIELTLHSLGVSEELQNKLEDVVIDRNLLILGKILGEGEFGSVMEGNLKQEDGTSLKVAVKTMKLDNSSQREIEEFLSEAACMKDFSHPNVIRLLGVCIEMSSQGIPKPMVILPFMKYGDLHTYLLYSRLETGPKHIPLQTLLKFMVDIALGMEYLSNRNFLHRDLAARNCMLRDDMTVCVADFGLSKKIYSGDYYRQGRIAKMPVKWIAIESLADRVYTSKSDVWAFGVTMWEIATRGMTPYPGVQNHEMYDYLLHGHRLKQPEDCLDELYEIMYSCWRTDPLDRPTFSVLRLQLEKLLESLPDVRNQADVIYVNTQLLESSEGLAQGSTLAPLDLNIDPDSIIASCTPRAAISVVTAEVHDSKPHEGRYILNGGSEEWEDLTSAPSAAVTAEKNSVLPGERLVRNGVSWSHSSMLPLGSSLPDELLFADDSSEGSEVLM
Sequence of Jak2 (O60674 whole entry, looked up): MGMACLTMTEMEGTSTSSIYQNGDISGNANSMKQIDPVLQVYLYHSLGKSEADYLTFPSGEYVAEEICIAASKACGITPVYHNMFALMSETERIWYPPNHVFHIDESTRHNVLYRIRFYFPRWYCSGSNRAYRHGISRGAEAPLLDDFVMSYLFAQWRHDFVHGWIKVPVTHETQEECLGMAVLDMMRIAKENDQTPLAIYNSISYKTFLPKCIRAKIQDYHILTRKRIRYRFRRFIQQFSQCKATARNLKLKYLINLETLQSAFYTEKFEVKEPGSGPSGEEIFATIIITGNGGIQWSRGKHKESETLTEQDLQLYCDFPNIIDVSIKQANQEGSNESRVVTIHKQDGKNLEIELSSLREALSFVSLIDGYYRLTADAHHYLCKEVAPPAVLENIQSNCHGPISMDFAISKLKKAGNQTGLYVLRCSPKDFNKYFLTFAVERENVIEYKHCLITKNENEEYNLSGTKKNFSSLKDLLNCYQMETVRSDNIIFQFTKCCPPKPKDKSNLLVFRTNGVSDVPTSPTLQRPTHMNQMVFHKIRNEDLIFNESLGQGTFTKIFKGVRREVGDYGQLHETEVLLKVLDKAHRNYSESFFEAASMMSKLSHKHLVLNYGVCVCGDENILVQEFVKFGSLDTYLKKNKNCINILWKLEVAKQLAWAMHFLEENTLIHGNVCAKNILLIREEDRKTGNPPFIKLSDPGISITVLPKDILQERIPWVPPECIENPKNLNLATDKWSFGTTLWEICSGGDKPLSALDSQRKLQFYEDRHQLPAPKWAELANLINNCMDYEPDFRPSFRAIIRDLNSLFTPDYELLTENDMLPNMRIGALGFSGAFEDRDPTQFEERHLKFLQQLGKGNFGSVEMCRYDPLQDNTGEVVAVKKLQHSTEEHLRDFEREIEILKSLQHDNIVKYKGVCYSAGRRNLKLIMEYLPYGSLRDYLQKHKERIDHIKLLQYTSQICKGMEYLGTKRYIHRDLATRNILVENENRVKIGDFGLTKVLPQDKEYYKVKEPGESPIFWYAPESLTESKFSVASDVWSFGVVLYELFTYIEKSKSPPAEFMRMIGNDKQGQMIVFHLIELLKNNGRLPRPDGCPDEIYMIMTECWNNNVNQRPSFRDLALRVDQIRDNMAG

| Sequence | SH2 binding enrichment (Grb2 SH2) | SH2 binding enrichment (SHP2-C SH2) | SH2 binding enrichment (c-Src SH2) | phosphorylation enrichment (MERTK) | phosphorylation enrichment (Jak2) | phosphorylation enrichment (Fyn) | phosphorylation enrichment (AncSZ) | phosphorylation enrichment (EPHB2) | phosphorylation enrichment (Fer (mouse)) | phosphorylation enrichment (c-Src) | phosphorylation enrichment (FGFR3) | phosphorylation enrichment (c-Abl (mouse)) | phosphorylation enrichment (EPHB1) | phosphorylation enrichment (Hck) | phosphorylation enrichment (FGFR1) | phosphorylation enrichment (Fes) |
| --- | --- | --- | --- | --- | --- | --- | --- | --- | --- | --- | --- | --- | --- | --- | --- | --- |
| YEREQYADRTR [RBM4_Y355_A359T] | 0.878 | 0.717 | 0.61 | 0.448 | 0.603 | 0.439 | 0.897 | 0.419 | 0.494 | 0.443 | 0.472 | 0.55 | 0.343 | 0.469 | 0.566 | 0.706 |
| YETVKYINNER [ABCB7_Y345_F346I] | 1.48 | 1.24 | 11.8 | 0.903 | 0.803 | 1.22 | 0.858 | 0.623 | 10.5 | 1.1 | 0.832 | 0.619 | 0.73 | 1.96 | 1.22 | 0.943 |
| YGCGMYSHLQG [LGR4_Y848_D844G] | 0.854 | 0.991 | 1.96 | 5.25 | 0.723 | 1.51 | 1.2 | 1.07 | 1.24 | 2.87 | 0.998 | 1.49 | 1.06 | 4.44 | 1.06 | 1.07 |
| YGSSSSGGAGG [RPA2_Y14_Y14S] | 0.711 | 0.612 | 0.395 | 0.355 | 0.392 | 0.389 | 0.604 | 0.461 | 0.437 | 0.337 | 0.347 | 0.317 | 0.304 | 0.359 | 0.403 | 0.535 |
| YKGKKYKPLDL [RPL35_Y78] | 0.821 | 0.955 | 0.429 | 0.581 | 0.51 | 0.511 | 0.462 | 0.391 | 0.537 | 0.541 | 0.45 | 0.508 | 0.283 | 0.404 | 0.405 | 0.541 |
| YLRTGYSIPYG [TGM1_Y370_V372I] | 1.01 | 2.11 | 9.77 | 1.21 | 0.804 | 0.375 | 0.777 | 0.461 | 0.384 | 0.457 | 0.574 | 0.702 | 0.451 | 0.39 | 0.554 | 0.677 |
| YNDSTYNQQLI [ZPLD1_Y198] | 0.784 | 0.371 | 0.568 | 0.435 | 0.612 | 0.479 | 0.801 | 0.465 | 0.491 | 0.51 | 0.471 | 0.533 | 0.521 | 0.506 | 0.495 | 0.738 |
| YPKARYRWLVL [APTX_Y214_H215R] | 1.08 | 1.02 | 0.933 | 0.478 | 0.6 | 0.464 | 0.786 | 0.553 | 0.456 | 0.399 | 0.492 | 0.499 | 0.434 | 0.422 | 0.611 | 0.787 |
| YRDALYKSMVD [PHEX_Y250_F252S] | 0.804 | 0.666 | 0.457 | 0.4 | 0.717 | 0.495 | 0.757 | 0.805 | 0.421 | 0.449 | 0.608 | 0.592 | 0.564 | 0.525 | 0.458 | 0.856 |
| YRIGPYQPNVP [MATR3_Y784] | 0.765 | 0.883 | 0.77 | 0.358 | 0.44 | 0.505 | 0.685 | 0.504 | 0.5 | 0.402 | 0.712 | 0.501 | 0.565 | 0.486 | 0.769 | 0.736 |
| YRKNIYNVKST [SYNE2_Y575] | 0.753 | 0.581 | 0.422 | 0.354 | 0.37 | 0.458 | 0.488 | 0.423 | 0.425 | 0.474 | 0.48 | 0.405 | 0.337 | 0.324 | 0.384 | 0.47 |
| YRQNVYIPGSN [PCDHGA1_Y895] | 0.829 | 0.661 | 0.43 | 0.424 | 0.576 | 0.435 | 0.564 | 0.429 | 0.405 | 0.454 | 0.519 | 0.531 | 0.421 | 0.435 | 0.427 | 0.626 |
| YSMGCYEISLG [HMGCL_Y198] | 0.551 | 0.658 | 0.582 | 2.66 | 1.38 | 2.15 | 2.12 | 1.18 | 2.77 | 2.35 | 0.817 | 1.08 | 1.56 | 1.22 | 0.69 | 1.47 |
| YSNVLYRPRGA [TMIGD2_Y197] | 0.907 | 0.683 | 1.05 | 2.23 | 0.596 | 0.615 | 0.923 | 0.6 | 4.97 | 0.558 | 0.614 | 0.692 | 1.34 | 0.651 | 0.784 | 0.753 |
| YSNVLYRPRGP [TMIGD2_Y197_A202P] | 0.717 | 4.56 | 0.682 | 0.856 | 0.501 | 0.501 | 0.796 | 0.576 | 1.83 | 0.421 | 0.525 | 0.461 | 0.492 | 0.69 | 0.685 | 0.656 |
| YTFTSYYMHWV [IGHV1-46_Y51] | 0.978 | 1.1 | 0.613 | 4.16 | 3.85 | 0.771 | 1.64 | 1.27 | 1.78 | 0.952 | 2.89 | 1.06 | 1.84 | 1.3 | 3.64 | 1.71 |
| YTGSTYRVGDT [FN1_Y106_N104S] | 0.836 | 0.902 | 0.538 | 0.355 | 0.715 | 0.464 | 0.72 | 0.453 | 0.405 | 0.48 | 0.58 | 0.595 | 0.422 | 0.529 | 0.726 | 0.748 |
| YVPSNYVAEDR [FRK_Y104_I100V] | 0.735 | 0.738 | 0.608 | 0.414 | 0.655 | 0.411 | 0.886 | 0.424 | 0.497 | 0.392 | 0.632 | 0.584 | 0.53 | 0.382 | 0.441 | 0.754 |
| YYHCTYKKRMI [CLEC12A_Y242] | 1.25 | 0.966 | 1.11 | 1.48 | 1.29 | 0.59 | 1.37 | 0.601 | 0.558 | 0.599 | 3.12 | 0.994 | 0.525 | 0.78 | 4.79 | 1.21 |

Reference: the supplement of paper PMC10065799, “High-throughput profiling of sequence recognition by tyrosine kinases and SH2 domains using bacterial peptide display” (eLife, 2023)
